Columns and labels:
factor IXaβ [1] = target: T1, factor IXaβ (UniProt P00740 47-191; P00740 227-461); assay: factor Xa generation assay on activated platelets (SFLLRN-amide), factor IXa titrated with factor VIIIa
T1 construct: Bought reagent
Description: (§1) Factor VIII cofactor activity, factor IXa-factor VIIIa affinity, and kinetic parameters were determined using factor Xa generation assays. Reactions were performed in the presence of either phospholipid vesicles, non-activated platelets, or platelets activated by SFLLRN-amide (50 μM).

factor IXaβ [2] = target: T1, factor IXaβ; assay: factor Xa generation assay on phospholipid vesicles, factor IXa titrated with factor VIIIa
Description: as §1

factor IXaβ [3] = target: T1, factor IXaβ; assay: factor Xa generation assay on non-activated platelets, factor IXa titrated with factor VIIIa
Description: as §1

T1 sequence (P00740 47-191 limits assumed, form in doubt, chain 1 of 2): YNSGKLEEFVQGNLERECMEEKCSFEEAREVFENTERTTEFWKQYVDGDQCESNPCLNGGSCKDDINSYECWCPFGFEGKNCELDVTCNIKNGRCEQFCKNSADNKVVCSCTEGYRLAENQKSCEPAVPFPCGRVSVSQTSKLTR
T1 sequence (P00740 227-461 limits assumed, form in doubt, chain 2 of 2): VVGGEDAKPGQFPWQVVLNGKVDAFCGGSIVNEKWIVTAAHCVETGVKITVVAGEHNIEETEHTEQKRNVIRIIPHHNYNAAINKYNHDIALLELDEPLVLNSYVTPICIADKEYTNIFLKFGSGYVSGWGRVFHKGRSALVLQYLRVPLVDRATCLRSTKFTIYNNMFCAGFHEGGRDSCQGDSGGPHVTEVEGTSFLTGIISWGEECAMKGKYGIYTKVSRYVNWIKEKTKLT

B1: factor VIIIa E113A (thrombin-activated B-domainless factor VIII bearing Glu113Ala) (other)
chain 1: ATRRYYLGAVELSWDYMQSDLGELPVDARFPPRVPKSFPFNTSVVYKKTLFVEFTVHLFNIAKPRPPWMGLLGPTIQAEVYDTVVITLKNMASHPVSLHAVGVSYWKASEGAAYDDQTSQREKEDDKVFPGGSHTYVWQVLKENGPMASDPLCLTYSYLSHVDLVKDLNSGLIGALLVCREGSLAKEKTQTLHKFILLFAVFDEGKSWHSETKNSLMQDRDAASARAWPKMHTVNGYVNRSLPGLIGCHRKSVYWHVIGMGTTPEVHSIFLEGHTFLVRNHRQASLEISPITFLTAQTLLMDLGQFLLFCHISSHQHDGMEAYVKVDSCPEEPQLRMKNNEEAEDYDDDLTDSEMDVVRFDDDNSPSFIQIR
chain 2: SVAKKHPKTWVHYIAAEEEDWDYAPLVLAPDDRSYKSQYLNNGPQRIGRKYKKVRFMAYTDETFKTREAIQHESGILGPLLYGEVGDTLLIIFKNQASRPYNIYPHGITDVRPLYSRRLPKGVKHLKDFPILPGEIFKYKWTVTVEDGPTKSDPRCLTRYYSSFVNMERDLASGLIGPLLICYKESVDQRGNQIMSDKRNVILFSVFDENRSWYLTENIQRFLPNPAGVQLEDPEFQASNIMHSINGYVFDSLQLSVCLHEVAYWYILSIGAQTDFLSVFFSGYTFKHKMVYEDTLTLFPFSGETVFMSMENPGLWILGCHNSDFRNRGMTALLKVSSCDKNTGDYYEDSYEDISAYLLSKNNAIEPR
chain 3: SFQKKTRHYFIAAVERLWDYGMSSSPHVLRNRAQSGSVPQFKKVVFQEFTDGSFTQPLYRGELNEHLGLLGPYIRAEVEDNIMVTFRNQASRPYSFYSSLISYEEDQRQGAEPRKNFVKPNETKTYFWKVQHHMAPTKDEFDCKAWAYFSDVDLEKDVHSGLIGPLLVCHTNTLNPAHGRQVTVQEFALFFTIFDETKSWYFTENMERNCRAPCNIQMEDPTFKENYRFHAINGYIMDTLPGLVMAQDQRIRWYLLSMGSNENIHSIHFSGHVFTVRKKEEYKMALYNLYPGVFETVEMLPSKAGIWRVECLIGEHLHAGMSTLFLVYSNKCQTPLGMASGHIRDFQITASGQYGQWAPKLARLHYSGSINAWSTKEPFSWIKVDLLAPMIIHGIKTQGARQKFSSLYISQFIIMYSLDGKKWQTYRGNSTGTLMVFFGNVDSSGIKHNIFNPPIIARYIRLHPTHYSIRSTLRMELMGCDLNSCSMPLGMESKAISDAQITASSYFTNMFATWSPSKARLHLQGRSNAWRPQVNNPKEWLQVDFQKTMKVTGVTTQGVKSLLTSMYVKEFLISSSQDGHQWTLFFQNGKVKVFQGNQDSFTPVVNSLDPPLLTRYLRIHPQSWVHQIALRMEVLGCEAQDLY
notes: also called factor VIII E113A; Factor VIII:E113A
Factor IXaβ [1]
  Kd: 6 nM
Factor IXaβ [2]
  Kd: 5 nM
Factor IXaβ [3]
  Kd: 5.7 nM
